In patent publication US20240262892A1 (NANJING VAZYME BIOTECH, published 2024):
Substitutions are numbered along the chain they refer to.

B1: Antibody 8-1 (antibody, V domains shown)
VH: EVQLVESGGGLIQPGGSLRLSCAASGLTVSSNYMTWVRQAPGKGLEWVSVIYSGGSTFYAESVKGRFTISRDNSKNTLYLQMNSLRAEDTAVYYCARDLVVYGMDVWGQGTTVIVSS
VL: DIQLTQSPSFLSASVGDRVTITCRASQGISSDLAWYQQKPGKAPKLLIYAASTLQSGVPSRFSGSGSGTEFTLTISSLQPEDFATYYCQQLNSHPLAFGPGTKVDIK
B2: Antibody 9-1 (antibody, V domains shown)
VH: QLQLQESGPGLVKPSETLSLTCTVSGGSISSSTYYWAWIRQPPGKGLEWIGSIYYSGSTYYNPSLKSRVTISVHTSKNQFSLKLTSVTAADTAVYYCARSMGLHDYWGQGTLVTVSS
VL: DIQMTQSPSSLSASVGDRVTITCRASQGIGNSLAWYQQKPGRAPKFLLYAASTLESGVPSRFSGSGSGTHFTLTISSLQPEDFATYFCQQYYSTPPYTFGQGTRLEIK
B3: Antibody 14-4 (antibody, V domains shown)
VH: QMQLVQSGPEVKKPGTSVKVSCKASGFTFTTSAVQWVRQARGQRLEWIGWIVVGSGNTNYAQKFQERVTITRDMSTSTGYMELSSLRSEDTAVYYCAAPNCNRTSCDDGFDIWGQGTMVTVSS
VL: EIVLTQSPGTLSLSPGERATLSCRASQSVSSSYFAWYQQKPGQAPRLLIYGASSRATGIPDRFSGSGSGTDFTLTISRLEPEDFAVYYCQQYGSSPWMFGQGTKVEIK
B4: Antibody 29-2 (antibody, V domains shown)
VH: QITLKESGPTLVKPTQTLTLTCTFSGFSLSSSGMGVGWIRQPPGKALEWLALIYWNDDKRYSPSLKSRLTITKDTSKNQVVLTLTNMDPVDTATYYCAHTTLYNNCPFDYWGQGTLVTVSS
VL: SYVLTQPPSVSVAPGKTARITCGGNNIGSYSVHWYQQRPGQAPVLVIYYDSDRPSGIPERFSGSNSGNTATLTISRVEAGDEADYYCQVWDNSSNHPWVFGGGTKLTVL
B5: Antibody 29-13 (antibody, V domains shown)
VH: QITLKESGPTLVKPTQTLTLTCTFSGFSLSTSGVGVGWIRQPPGKALEWLALIYWDDDKRYSPSLKSRLSITKDTSKNQVALTVTNMDPVDTATYYCAHRRPGPGSYYFDYWGQGTLVTVSS
VL: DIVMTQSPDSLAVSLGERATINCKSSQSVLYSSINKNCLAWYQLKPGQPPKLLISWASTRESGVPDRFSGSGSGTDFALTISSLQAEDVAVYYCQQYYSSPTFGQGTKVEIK
B6: Antibody 34-2 (antibody, V domains shown)
VH: EVQLVESGGGLVQPGRSLRLSCAASGFTFDESAMHWVRQAPGEGLEWVSGISWNSGRIAYADSVRGRFTISRDNAKNSLYLQMNSLRAEDTALYFCALTTSGWFSFDYWGQGTLVTVSS
VL: SYVLTQPPSVSVAPGKTARITCGGNNIGSKSVHWYQQKPGQAPVPVIYYDSDRPSGIPERFSGSNSGNTATLTISRVEVGDEADYYCQVWDSSSDRAVFGGGTTLTVL
B7: Antibody 8-3 (antibody, V domains shown)
VH: EVQLVESGGGLVQPGGSLRLSCAASGITVSSNYMNWVRQAPGKGLDWVSVIYSGGSTFYADSVKGRFIISRDNSKNTLFLQMDSLRVEDTAVYYCARDLVVRGVDIWGQGTMVTVSS
VL: DIQLTQSPSFLSASVGDRVTITCRASQGISSDLAWYHQKPGKAPKLLIYAASTLQSGVPSRFSGSGSGTEFTLTISSLQPEDFATYYCQQLNSYRGLIFGGGTKVEIK
B8: Antibody 9-8 (antibody, V domains shown)
VH: EVQLVESGGGVVQPGGSLRLSCAASGFTFDDYAIHWVRQAPGKGLEWVSLISGDGGTTYYADFVKGRFTISRDNSKNSLYLQMNSLRTEDTALYYCAKDIPVCSSTICYRFTARLHGMDVWGQGTTVTVSS
VL: DIQMTQSPSSLSASVGDRVTITCRASQSISSYLNWYQQKPGKAPKLLIYTASSLQSGVPSRFSGSGSGADFTLTISSLQPEDFATYYCQQRYSTPLTFGGGTKVEIK
B9: Antibody 5-10 (antibody, V domains shown)
VH: EVQLLESGGGLVQPGGSLRLSCAASGFTFSSYAMSWVRQAPGKGLEWVSAIVGSGGSTYYADSVKGRFIISRDNSKNTLYLQMNSLRAEDTAVYYCAKSLIYGHYDILTGAYYFDYWGQGTLVTVSS
VL: DIQMTQSPSSVSASVGDRVTIPCRASQGIGNWLAWYQQKPGKAPKLLIYAASSLQSGVPSRFSGSGSGTDFTLTISSLQPEDFATYYCQQANSFPPFGQGTRLEIK
B10: Antibody 12-9 (antibody, V domains shown)
VH: EVQLVESGGGLVKPGGSLRLSCAASEFTFSSYSMNWVRQAPGKGLEWVSSISSSGSDIYYADSVKGRFTISRDNAKKSLYLQMNSLRVEDTAVYYCATNGGAHSSTWSFYGMDVWGQGTTVTVSS
VL: SYELTQPPSVSVSPGQTATITCSGDKLGDKYACWYQQRPGQSPVLVIYQDSKRPSGIPERFSGSNSGNTATLTIGGTQAMDEAAYFCQAWDSNTGVFGGGTKLTVL
B11: Antibody 12-11 (antibody, V domains shown)
VH: QVQVVQSGAEVKKPGASVKVSCKVSGYTLIEISIHWVRQAPGKGLEWMGGFDPEAGETIYAQKFQGRVTMTEDTSTDTAYMEVSSLRSEDTAVYYCATGPAIAAAETNWFDLWGQGTLVTVSS
VL: QSALTQPASVSGSPGQSITISCTGTSSDVGSYNYVSWYQQHPGKAPKLMIYDVTKRPSGVPDRFSGSKSGNTASLTISGLQAEDEADYYCSSYTSSSTWVFGGGTKLTVL
B12: Antibody 12-13 (antibody, V domains shown)
VH: QVQVVQSGAEVKKPGASVKVSCKVSGYTLTELSIHWVRQTPGKGLEWMGGFDPEDGETIYAQWLQGRVTMTEDTSTDIAYMELSSLRHEDTAVYYCATGPAIAGAGTNWFDPRGQGTLVIVSS
VL: B11 VL with S31G, T54S, S91T, S95N
B13: Antibody 12-17 (antibody, V domains shown)
VH: EVQLVESGGGLVKPGGSLRLSCAASGFTLNSYSMNWVRQAPGKGLEWVSSISSTSSDIYYADSVKGRFTISRDNAKNSVDLQMNSLRAEDTAVYYCATNGGAHRNTWSFYGMDVWGQGTTVTVSS
VL: B10 VL with T19S, C33S, R38K, S51T, A70V, G75S, A84D, F86Y, N93S
B14: Antibody 14-8 (antibody, V domains shown)
VH: QVQLVQSGAEVKKPGASVKVSCKASGYTFTGYYIHWVRQAPGKGPEWMGWINPNSGGTNYAQKFQGWVTMTRDTSISAAYMELSRLKFDDTAIYYCAKSGEKVGADLGYYDYGMDLWGQGTTVTVSS
VL: SYELTQPPSVSVSPGQTARITCSGDALPKQYAYWYQQKPGQAPVMVIYKDTERPSGIPERFSGSSSGTTVTLTISGVQAEDEADYNCQSVDSSGAYVVFGGGTKLTVL
B15: Antibody 13-17 (antibody, V domains shown)
VH: QDQLVQSGAEVKKPGASVKVSCKVSGYTLPELSLHWVRQPPGKGLEWMGGFDPEDGETIYAQKFQGRVTMTEDTSTDTAYMELSSLRSEDTAVYYCAASTPMGGHTDWLDPWGQGTLVTVSS
VL: QSVLTQPPSVSAAPGQKVTISCSGSSSNIGNNYVSWYQQLPGTAPKLLIYDNNKRPSGIPDRFSGSKSGTSATLGITGLQTGDEADYYCGTWDSSLSAGVFGGGTKLTVL

These binders were tested against T1, SARS-CoV-2 RBD (receptor binding domain of spike protein of SARS-CoV-2) (SARS-CoV-2, UniProt P0DTC2 319-541) (assay: not given).

B1 gave a Kd of 0.047 nM.

The binders below were run against T1, SARS-CoV-2 RBD (receptor binding domain …) (assay: HTRF ACE2/RBD binding assay (665/620 ratio); blocked ligand: ACE2).

In order of falling IC50:
1. B4  0.117 mg/L
2. B6  0.115 mg/L
3. B7  0.109 mg/L
4. B2  0.105 mg/L
5. B1  0.103 mg/L
6. B3  0.103 mg/L
7. B5  0.0954 mg/L

What follows are binders tested against T1, SARS-CoV-2 RBD (receptor binding domain …) (assay: HTRF ACE2/RBD binding assay, competition with ACE2).

With B8 the IC50 was 4.14 mg/L.

Target: T1, SARS-CoV-2 RBD (receptor binding domain …)
Assay: not given
Remark: another data set of the same source

In order of falling Kd:
1. B8  4.75 nM
2. B9  4.32 nM
3. B3  2.62 nM
4. B7  1.55 nM
5. B5  1.28 nM
6. B2  0.835 nM
7. B4  0.392 nM
8. B6  0.217 nM

The binders below were run against T2, SARS-CoV-2 S1 (S1 subunit of spike protein of SARS-CoV-2) (SARS-CoV-2, UniProt P0DTC2 14-685) (assay: ELISA, SARS-CoV-2 S1 coated on the plate, anti-human IgG-HRP, OD450).
T2 construct: domain: S1; also called SARS-CoV-2 Spike protein S1 domain

In order of rising “EC50 (read off the curve)” value:
1. B10  ~0.03 mg/L
2. B13  ~0.04 mg/L
3. B12  ~0.07 mg/L
4. B11  ~0.1 mg/L
5. B14  ~0.1 mg/L
6. B15  ~0.1 mg/L

The binders below were run against T1, SARS-CoV-2 RBD (receptor binding domain …) (assay: ELISA, SARS-CoV-2 RBD coated on the plate, anti-human IgG-HRP, OD450).

In order of rising EC50:
1. B5  0.00473 mg/L
2. B3  0.0162 mg/L
3. B8  0.0243 mg/L
4. B9  0.0269 mg/L
5. B4  0.0372 mg/L
6. B7  0.0483 mg/L
7. B6  0.0493 mg/L
8. B1  0.0506 mg/L
9. B2  0.0886 mg/L

Each binder was assayed against T3, SARS-CoV-2 S1 protein NTD (N-terminal domain of spike protein of SARS-CoV-2) (SARS-CoV-2, UniProt P0DTC2 14-305) (assay: ELISA, S1-NTD coated on the plate, antibody at one concentration, anti-human IgG-HRP).
T3 construct: also called S1-NTD; NTD of S1 subunit

In order of rising OD450:
1. B10  3.76
2. B15  3.91
3. B11  3.93
4. B13  3.95
5. B12  3.96
6. B14  3.98

Each binder was assayed against T3, SARS-CoV-2 S1 protein NTD (N-terminal …) (assay: biolayer interferometry, ForteBio Octet RED96e, NTD 250 nM to 7.81 nM, 1:1 model).

In order of rising Kd:
1. B15  4.39 nM
2. B13  5.49 nM
3. B12  5.61 nM
4. B11  5.82 nM
5. B14  7.08 nM
6. B10  16.7 nM

What follows are binders tested against T1, SARS-CoV-2 RBD (receptor binding domain …) (assay: ELISA, S1-RBD coated on the plate, antibody at one concentration, anti-human IgG-HRP).

In order of rising OD450:
1. B12  0.06
2. B11  0.0638
3. B13  0.0641
4. B14  0.0693
5. B10  0.0764
6. B15  0.0815
